Biological target: temperature sensitive C1 repressor polypeptide from thermoinducible bacteriophage P1Cm carrying the c1.100 mutation (bacteriophage P1)
Experiment: cell-based or functional assay

“Coi polypeptide (C1 inactivator polypeptide) from bacteriophage P1” showed a Basal activity (31° C.), Miller units; β-Gal from Op72lacZcoi reporter in K. pneumoniae of 36.4 Miller units, a Fold-induction; β-Gal from Op72lacZcoi reporter in K. pneumoniae of 19 fold and an Induced activity (42° C.), Miller units; β-Gal from Op72lacZcoi reporter in K. pneumoniae of 698 Miller units.
